Test results taken from patent publication US20230235304.
Changes are numbered by the printed parent chain.

Legend:
Assay in all cases: cell_activity
Settings in all cases: PAM 5'-GCTG-3'; HEK293T; averaged over AAVS1, VEGFA, EMX1 targets
[1] = test system: T1, CRISPR nuclease variant D535G,L516R,I521R D535G,L516R,I521R (synthetic construct)
T1 sequence: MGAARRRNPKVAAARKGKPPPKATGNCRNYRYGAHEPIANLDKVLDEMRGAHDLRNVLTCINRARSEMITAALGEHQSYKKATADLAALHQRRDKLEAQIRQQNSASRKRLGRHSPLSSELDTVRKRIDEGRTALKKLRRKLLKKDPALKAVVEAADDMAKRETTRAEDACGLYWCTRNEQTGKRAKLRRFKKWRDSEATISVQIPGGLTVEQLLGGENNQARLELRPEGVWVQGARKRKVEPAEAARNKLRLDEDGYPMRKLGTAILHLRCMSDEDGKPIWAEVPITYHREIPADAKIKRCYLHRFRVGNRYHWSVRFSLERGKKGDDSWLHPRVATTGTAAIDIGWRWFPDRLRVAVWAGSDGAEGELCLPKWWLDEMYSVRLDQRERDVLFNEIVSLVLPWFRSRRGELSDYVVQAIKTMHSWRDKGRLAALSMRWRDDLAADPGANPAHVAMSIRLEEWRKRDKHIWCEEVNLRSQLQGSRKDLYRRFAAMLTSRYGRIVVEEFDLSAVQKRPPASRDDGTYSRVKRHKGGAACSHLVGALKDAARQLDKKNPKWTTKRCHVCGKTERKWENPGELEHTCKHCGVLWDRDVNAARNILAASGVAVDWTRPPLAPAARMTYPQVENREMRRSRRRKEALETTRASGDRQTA

[2] = test system: T2, CRISPR nuclease variant I521R I521R (synthetic construct)
T2 sequence: T1 sequence with R516L, G535D

[3] = test system: T3, CRISPR nuclease variant K136G,N220R,M380R K136G,N220R,M380R (synthetic construct)
T3 sequence: T1 sequence with K136G, N220R, M380R, R516L, R521I, G535D

[4] = test system: T4, CRISPR nuclease variant L580G,A512R L580G,A512R (synthetic construct)
T4 sequence: T1 sequence with A512R, R516L, R521I, G535D, L580G

GGUCCCAUCGGAACGGGUUGUGGUUCCGACGGAGGGAUACAUUGGUGGGG / GGAGGGATACATTGGTGGGG / CCCCACCAATGTATCCCTCC [AAVS1 crRNA (Table 5) ; AAVS1 target (Table 5)]
binding signal (fold indels vs WT) [1]: 3.59 | binding signal (fold indels vs WT) [2]: 3.57 | binding signal (fold indels vs WT) [3]: 4.54 | binding signal (fold indels vs WT) [4]: 3.75
